For nine molecules, IC50 results are on record in patent publication US20160272683A1 (Novo Nordisk, published 2016).

Numbered stars: 1 amine (or outer) side, 2 acyl side, 3 side chain; on linkers, the order of the positions; unused ones are H or OH. * marks the point of attachment. C20 diacid = O=C(O)CCCCCCCCCCCCCCCCCCC(=O)*; γGlu = O=C(O)[C@H](CCC(=O)[*:2])N[*:1]

Usually IC50 stands for the concentration at which inhibition is half-maximal.

T1: human calcitonin receptor (human, UniProt P30988 25-474)
T1 construct: whole, on cells; also called hCT-R; hCTR
T1 sequence (looked up): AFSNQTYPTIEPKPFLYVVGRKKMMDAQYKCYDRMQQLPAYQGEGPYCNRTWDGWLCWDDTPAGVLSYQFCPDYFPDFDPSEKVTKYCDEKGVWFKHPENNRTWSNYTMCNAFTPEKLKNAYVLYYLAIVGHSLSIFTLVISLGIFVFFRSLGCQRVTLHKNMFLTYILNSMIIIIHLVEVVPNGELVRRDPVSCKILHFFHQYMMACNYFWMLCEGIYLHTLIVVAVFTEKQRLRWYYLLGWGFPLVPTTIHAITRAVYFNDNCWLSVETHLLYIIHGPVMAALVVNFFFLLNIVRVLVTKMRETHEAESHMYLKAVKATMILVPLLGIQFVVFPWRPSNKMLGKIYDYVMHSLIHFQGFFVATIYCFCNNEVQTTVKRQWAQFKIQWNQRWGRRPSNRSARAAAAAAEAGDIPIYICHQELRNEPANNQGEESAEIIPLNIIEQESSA

B1: [N-terminal(C20 diacid-gGlu), des1, 9S, 21S, 23Y, 30S, 31G, 33Y]mimylin (peptide)
peptide: {C20 diacid-γGlu}-ASELSTASLGRLSAELHELSTYPRTETGSGSY-NH2
SMILES: CC(C)C[C@H](NC(=O)[C@H](CO)NC(=O)[C@H](C)NC(=O)[C@@H](NC(=O)[C@H](CO)NC(=O)[C@H](CC(C)C)NC(=O)[C@H](CCC(=O)O)NC(=O)[C@H](CO)NC(=O)[C@H](C)NC(=O)CC[C@H](NC(=O)CCCCCCCCCCCCCCCCCCC(=O)O)C(=O)O)[C@@H](C)O)C(=O)NCC(=O)N[C@@H](CCCNC(=N)N)C(=O)N[C@@H](CC(C)C)C(=O)N[C@@H](CO)C(=O)N[C@@H](C)C(=O)N[C@@H](CCC(=O)O)C(=O)N[C@@H](CC(C)C)C(=O)N[C@@H](Cc1c[nH]cn1)C(=O)N[C@@H](CCC(=O)O)C(=O)N[C@@H](CC(C)C)C(=O)N[C@@H](CO)C(=O)N[C@H](C(=O)N[C@@H](Cc1ccc(O)cc1)C(=O)N1CCC[C@H]1C(=O)N[C@@H](CCCNC(=N)N)C(=O)N[C@H](C(=O)N[C@@H](CCC(=O)O)C(=O)N[C@H](C(=O)NCC(=O)N[C@@H](CO)C(=O)NCC(=O)N[C@@H](CO)C(=O)N[C@@H](Cc1ccc(O)cc1)C(N)=O)[C@@H](C)O)[C@@H](C)O)[C@@H](C)O
notes: also called Ex. #100
B2: [N-terminal(C20 diacid-gGlu), des1, 12K, 23Y, 25K, 30S, 31G, 33Y]mimylin (peptide)
peptide: {C20 diacid-γGlu}-ASELSTAALGKLSAELHELATYPKTETGSGSY-NH2
SMILES: CC(C)C[C@H](NC(=O)[C@H](C)NC(=O)[C@H](C)NC(=O)[C@@H](NC(=O)[C@H](CO)NC(=O)[C@H](CC(C)C)NC(=O)[C@H](CCC(=O)O)NC(=O)[C@H](CO)NC(=O)[C@H](C)NC(=O)CC[C@H](NC(=O)CCCCCCCCCCCCCCCCCCC(=O)O)C(=O)O)[C@@H](C)O)C(=O)NCC(=O)N[C@@H](CCCCN)C(=O)N[C@@H](CC(C)C)C(=O)N[C@@H](CO)C(=O)N[C@@H](C)C(=O)N[C@@H](CCC(=O)O)C(=O)N[C@@H](CC(C)C)C(=O)N[C@@H](Cc1c[nH]cn1)C(=O)N[C@@H](CCC(=O)O)C(=O)N[C@@H](CC(C)C)C(=O)N[C@@H](C)C(=O)N[C@H](C(=O)N[C@@H](Cc1ccc(O)cc1)C(=O)N1CCC[C@H]1C(=O)N[C@@H](CCCCN)C(=O)N[C@H](C(=O)N[C@@H](CCC(=O)O)C(=O)N[C@H](C(=O)NCC(=O)N[C@@H](CO)C(=O)NCC(=O)N[C@@H](CO)C(=O)N[C@@H](Cc1ccc(O)cc1)C(N)=O)[C@@H](C)O)[C@@H](C)O)[C@@H](C)O
notes: also called Ex. #101
B3: [N-terminal(C20 diacid-gGlu), des1, 12H, 25H, 30T, 31G, 32T]mimylin (peptide)
peptide: {C20 diacid-γGlu}-ASELSTAALGHLSAELHELATLPHTETGTGTP-NH2
SMILES: CC(C)C[C@H](NC(=O)[C@H](C)NC(=O)[C@H](C)NC(=O)[C@@H](NC(=O)[C@H](CO)NC(=O)[C@H](CC(C)C)NC(=O)[C@H](CCC(=O)O)NC(=O)[C@H](CO)NC(=O)[C@H](C)NC(=O)CC[C@H](NC(=O)CCCCCCCCCCCCCCCCCCC(=O)O)C(=O)O)[C@@H](C)O)C(=O)NCC(=O)N[C@@H](Cc1c[nH]cn1)C(=O)N[C@@H](CC(C)C)C(=O)N[C@@H](CO)C(=O)N[C@@H](C)C(=O)N[C@@H](CCC(=O)O)C(=O)N[C@@H](CC(C)C)C(=O)N[C@@H](Cc1c[nH]cn1)C(=O)N[C@@H](CCC(=O)O)C(=O)N[C@@H](CC(C)C)C(=O)N[C@@H](C)C(=O)N[C@H](C(=O)N[C@@H](CC(C)C)C(=O)N1CCC[C@H]1C(=O)N[C@@H](Cc1c[nH]cn1)C(=O)N[C@H](C(=O)N[C@@H](CCC(=O)O)C(=O)N[C@H](C(=O)NCC(=O)N[C@H](C(=O)NCC(=O)N[C@H](C(=O)N1CCC[C@H]1C(N)=O)[C@@H](C)O)[C@@H](C)O)[C@@H](C)O)[C@@H](C)O)[C@@H](C)O
notes: also called Ex. #93
B4: [N-terminal(C20 diacid-gGlu), des1, 23Y, 30S, 31G, 33Y, C-terminal(-)]mimylin (peptide)
peptide: {C20 diacid-γGlu}-ASELSTAALGRLSAELHELATYPRTETGSGSY-OH
notes: also called Ex. #88
B5: [N-terminal(C20 diacid-gGlu), des1, 23Y, 30S, 31G, 32A]mimylin (peptide)
peptide: {C20 diacid-γGlu}-ASELSTAALGRLSAELHELATYPRTETGSGAP-NH2
SMILES: CC(C)C[C@H](NC(=O)[C@H](C)NC(=O)[C@H](C)NC(=O)[C@@H](NC(=O)[C@H](CO)NC(=O)[C@H](CC(C)C)NC(=O)[C@H](CCC(=O)O)NC(=O)[C@H](CO)NC(=O)[C@H](C)NC(=O)CC[C@H](NC(=O)CCCCCCCCCCCCCCCCCCC(=O)O)C(=O)O)[C@@H](C)O)C(=O)NCC(=O)N[C@@H](CCCNC(=N)N)C(=O)N[C@@H](CC(C)C)C(=O)N[C@@H](CO)C(=O)N[C@@H](C)C(=O)N[C@@H](CCC(=O)O)C(=O)N[C@@H](CC(C)C)C(=O)N[C@@H](Cc1c[nH]cn1)C(=O)N[C@@H](CCC(=O)O)C(=O)N[C@@H](CC(C)C)C(=O)N[C@@H](C)C(=O)N[C@H](C(=O)N[C@@H](Cc1ccc(O)cc1)C(=O)N1CCC[C@H]1C(=O)N[C@@H](CCCNC(=N)N)C(=O)N[C@H](C(=O)N[C@@H](CCC(=O)O)C(=O)N[C@H](C(=O)NCC(=O)N[C@@H](CO)C(=O)NCC(=O)N[C@@H](C)C(=O)N1CCC[C@H]1C(N)=O)[C@@H](C)O)[C@@H](C)O)[C@@H](C)O
notes: also called Ex. #81
B6: [N-terminal(C20 diacid-gGlu), des1, 9T, 21S, 23Y, 30S, 31G]mimylin (peptide)
peptide: {C20 diacid-γGlu}-ASELSTATLGRLSAELHELSTYPRTETGSGSP-NH2
SMILES: CC(C)C[C@H](NC(=O)[C@H](CCCNC(=N)N)NC(=O)CNC(=O)[C@H](CC(C)C)NC(=O)[C@@H](NC(=O)[C@H](C)NC(=O)[C@@H](NC(=O)[C@H](CO)NC(=O)[C@H](CC(C)C)NC(=O)[C@H](CCC(=O)O)NC(=O)[C@H](CO)NC(=O)[C@H](C)NC(=O)CC[C@H](NC(=O)CCCCCCCCCCCCCCCCCCC(=O)O)C(=O)O)[C@@H](C)O)[C@@H](C)O)C(=O)N[C@@H](CO)C(=O)N[C@@H](C)C(=O)N[C@@H](CCC(=O)O)C(=O)N[C@@H](CC(C)C)C(=O)N[C@@H](Cc1c[nH]cn1)C(=O)N[C@@H](CCC(=O)O)C(=O)N[C@@H](CC(C)C)C(=O)N[C@@H](CO)C(=O)N[C@H](C(=O)N[C@@H](Cc1ccc(O)cc1)C(=O)N1CCC[C@H]1C(=O)N[C@@H](CCCNC(=N)N)C(=O)N[C@H](C(=O)N[C@@H](CCC(=O)O)C(=O)N[C@H](C(=O)NCC(=O)N[C@@H](CO)C(=O)NCC(=O)N[C@@H](CO)C(=O)N1CCC[C@H]1C(N)=O)[C@@H](C)O)[C@@H](C)O)[C@@H](C)O
notes: also called Ex. #92
B7: [N-terminal(C20 diacid-gGlu), des1, 23Y, 30S, 31G]mimylin (peptide)
peptide: {C20 diacid-γGlu}-ASELSTAALGRLSAELHELATYPRTETGSGSP-NH2
SMILES: CC(C)C[C@H](NC(=O)[C@H](C)NC(=O)[C@H](C)NC(=O)[C@@H](NC(=O)[C@H](CO)NC(=O)[C@H](CC(C)C)NC(=O)[C@H](CCC(=O)O)NC(=O)[C@H](CO)NC(=O)[C@H](C)NC(=O)CC[C@H](NC(=O)CCCCCCCCCCCCCCCCCCC(=O)O)C(=O)O)[C@@H](C)O)C(=O)NCC(=O)N[C@@H](CCCNC(=N)N)C(=O)N[C@@H](CC(C)C)C(=O)N[C@@H](CO)C(=O)N[C@@H](C)C(=O)N[C@@H](CCC(=O)O)C(=O)N[C@@H](CC(C)C)C(=O)N[C@@H](Cc1c[nH]cn1)C(=O)N[C@@H](CCC(=O)O)C(=O)N[C@@H](CC(C)C)C(=O)N[C@@H](C)C(=O)N[C@H](C(=O)N[C@@H](Cc1ccc(O)cc1)C(=O)N1CCC[C@H]1C(=O)N[C@@H](CCCNC(=N)N)C(=O)N[C@H](C(=O)N[C@@H](CCC(=O)O)C(=O)N[C@H](C(=O)NCC(=O)N[C@@H](CO)C(=O)NCC(=O)N[C@@H](CO)C(=O)N1CCC[C@H]1C(N)=O)[C@@H](C)O)[C@@H](C)O)[C@@H](C)O
notes: also called Ex. #56
B8: [N-terminal(C20 diacid-gGlu), des1, 21S, 23Y, 30S, 31G, 33Y]mimylin (peptide)
peptide: {C20 diacid-γGlu}-ASELSTAALGRLSAELHELSTYPRTETGSGSY-NH2
SMILES: CC(C)C[C@H](NC(=O)[C@H](C)NC(=O)[C@H](C)NC(=O)[C@@H](NC(=O)[C@H](CO)NC(=O)[C@H](CC(C)C)NC(=O)[C@H](CCC(=O)O)NC(=O)[C@H](CO)NC(=O)[C@H](C)NC(=O)CC[C@H](NC(=O)CCCCCCCCCCCCCCCCCCC(=O)O)C(=O)O)[C@@H](C)O)C(=O)NCC(=O)N[C@@H](CCCNC(=N)N)C(=O)N[C@@H](CC(C)C)C(=O)N[C@@H](CO)C(=O)N[C@@H](C)C(=O)N[C@@H](CCC(=O)O)C(=O)N[C@@H](CC(C)C)C(=O)N[C@@H](Cc1c[nH]cn1)C(=O)N[C@@H](CCC(=O)O)C(=O)N[C@@H](CC(C)C)C(=O)N[C@@H](CO)C(=O)N[C@H](C(=O)N[C@@H](Cc1ccc(O)cc1)C(=O)N1CCC[C@H]1C(=O)N[C@@H](CCCNC(=N)N)C(=O)N[C@H](C(=O)N[C@@H](CCC(=O)O)C(=O)N[C@H](C(=O)NCC(=O)N[C@@H](CO)C(=O)NCC(=O)N[C@@H](CO)C(=O)N[C@@H](Cc1ccc(O)cc1)C(N)=O)[C@@H](C)O)[C@@H](C)O)[C@@H](C)O
notes: also called Ex. #97
B9: [N-terminal(C20 diacid-gGlu), des1, 12H, 30S, 31G]mimylin (peptide)
peptide: {C20 diacid-γGlu}-ASELSTAALGHLSAELHELATLPRTETGSGSP-NH2
notes: also called Ex. #72

The target in this test is T1, human calcitonin receptor. In words: whole-cell competition vs 125I-human calcitonin (Assay VIIa). In outline:
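BHK tk'ts 13 cells stably co-expressing human calcitonin receptor and a CRE-luciferase reporter, seeded overnight at 37 °C. Bound tracer counted by scintillation after cold HBSS washes and NaOH/SDS lysis; IC₅₀ from one-site competition fit taken as receptor affinity.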
For B1, the IC50 stood at 2.82 nM.

Regarding B2, the IC50 was found to be 0.628 nM.

As for B3, the IC50 worked out at 1.03 nM.

Turning to B4, the IC50 was 24.2 nM.

As for B5, the half-maximal inhibitory concentration (IC50) was determined as 4.93 nM.

Turning to B6, the IC50 came to 2.94 nM.

For the molecule B7, the IC50 was determined as 2.94 nM.

As to B8, the IC50 was determined as 0.307 nM.

Turning to B9, the IC50 is 0.438 nM.
